# Assay results from PMC9728973.
# Tests used:
# [1] = target: wild-type (WT) SARS-CoV-2 S-protein trimer (SARS-CoV-2) (UniProt P0DTC2); experiment: ELISA
# [2] = target: prefusion stabilized SARS-CoV-2 S-protein trimer (SARS-CoV-2) (UniProt P0DTC2); experiment: ELISA
# [3] = target: wild-type (WT) SARS-CoV-2 S-protein trimer (SARS-CoV-2) (UniProt P0DTC2)
# PD-Li-Fc (human) = PD-Li-Fc (human) (UniProt Q9BYF1); experiment: BLI
# PD-Fc (human) = PD-Fc (human) (UniProt Q9BYF1); experiment: BLI
# PD-CLD-Fc (human) = PD-CLD-Fc (human) (UniProt Q9BYF1); experiment: BLI
# Fc-Li-PD (human) = Fc-Li-PD (human) (UniProt Q9BYF1); experiment: BLI
substance,measurement,setting,value
PD-CLD-Fc (from UniProt Q9BYF1 18-740) (Fc fusion),IC50,[1],0.1 nM
same,IC50,[2],10 nM
PD-Fc (from UniProt Q9BYF1 18-615) (Fc fusion),IC50 of neutralisation: infection of ACE2-transduced HEK293T cells by SARS-CoV-2 pseudotyped VSV particles (luciferase); S protein on the pseudovirus with cell-surface ACE2,[3],12 nM
PD-Li-Fc (from UniProt Q9BYF1 18-615) (Fc fusion),IC50 of neutralisation: infection of ACE2-transduced HEK293T cells by SARS-CoV-2 pseudotyped VSV particles (luciferase); S protein on the pseudovirus with cell-surface ACE2,[3],12 nM
S1 monomer (BLI of Fig. 3B) (domain or fragment),ratio of the KD for S1 monomer to the KD for S-protein trimer,PD-Li-Fc (human),3 fold
same,ratio of the KD for S1 monomer to the KD for S-protein trimer,PD-Fc (human),3 fold
same,Kd,PD-CLD-Fc (human),11 nM
same,Kd,Fc-Li-PD (human),45 nM
